# Patent publication US20240424127A1 (BRIGHT PEAK THERAPEUTICS, published 2024)
# Where a chain is given by its changes, count along the chain named. In names and notes the source's numbering stands. Like-named read-outs stand apart in the source and are kept apart here. Bridges are numbered along the chain shown (N, C = ends). [ ]: non-standard residue; d: D form. glutaryl‑PEG9‑azide = glutaryl-PEG9-azide group on the N-terminal amine; hSer = N[C@@H](CCO)C(=O)O; Nle = CCCC[C@H](N)C(=O)O
# T1: Recombinant Human IL-7R alpha/CD127 Fc Avi-tag Protein, CF (R&D Systems #AVI10317-050) (human, UniProt P16871 21-239)
# T1 construct: Bought construct; It was loaded on streptavidin (SAX/SAX2) biosensors; not shown: Fc and Avi-tag of a bought protein
# T1 sequence (looked up): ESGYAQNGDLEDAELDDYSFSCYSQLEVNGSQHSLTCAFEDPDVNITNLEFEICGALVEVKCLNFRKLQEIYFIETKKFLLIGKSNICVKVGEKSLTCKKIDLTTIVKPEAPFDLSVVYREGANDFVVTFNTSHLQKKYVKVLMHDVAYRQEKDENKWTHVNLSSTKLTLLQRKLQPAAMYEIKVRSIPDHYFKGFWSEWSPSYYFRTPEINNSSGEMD
# T2: IL-7 receptor (IL-7Rα/γc heterodimer) on primary human T cells (human, UniProt P16871 21-459; P31785 23-369)
# T2 sequence (looked up) 1: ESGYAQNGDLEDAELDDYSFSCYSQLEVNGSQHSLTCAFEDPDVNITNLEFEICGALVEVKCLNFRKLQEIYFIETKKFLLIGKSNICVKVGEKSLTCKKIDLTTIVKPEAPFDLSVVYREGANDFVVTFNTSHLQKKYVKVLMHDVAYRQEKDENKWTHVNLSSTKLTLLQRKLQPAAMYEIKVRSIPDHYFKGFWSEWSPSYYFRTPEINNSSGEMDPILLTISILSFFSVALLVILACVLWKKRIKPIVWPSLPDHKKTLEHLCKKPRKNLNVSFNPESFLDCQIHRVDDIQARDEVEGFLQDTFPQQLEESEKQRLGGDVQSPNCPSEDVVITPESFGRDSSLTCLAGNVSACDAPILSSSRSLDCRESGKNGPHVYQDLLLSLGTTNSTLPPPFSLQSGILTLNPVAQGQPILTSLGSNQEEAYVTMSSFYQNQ
# T2 sequence (looked up) 2: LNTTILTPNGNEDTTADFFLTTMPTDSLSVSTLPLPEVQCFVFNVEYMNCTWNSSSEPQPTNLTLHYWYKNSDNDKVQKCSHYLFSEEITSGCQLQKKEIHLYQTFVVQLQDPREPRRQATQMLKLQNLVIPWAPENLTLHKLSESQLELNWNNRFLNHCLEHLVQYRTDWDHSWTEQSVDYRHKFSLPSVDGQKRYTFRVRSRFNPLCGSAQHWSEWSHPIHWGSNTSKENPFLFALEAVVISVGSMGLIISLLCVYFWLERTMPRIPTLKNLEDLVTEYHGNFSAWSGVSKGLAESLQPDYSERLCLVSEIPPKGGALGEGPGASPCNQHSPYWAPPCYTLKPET
# B1: CMP-108, synthetic IL-7 of SEQ ID NO: 3 with glutaryl-PEG9-azide at the N-terminus (ligand)
# chain: {glutaryl‑PEG9‑azide}-DCDIEGKDGKQYESVL[Nle]VSIDQLLDS[Nle]KEIGSNCL[hSer]NEFNFFKRHICDANKEG[Nle]FLFRAARKLRQFLK[Nle]NSTGDF[hSer]LHLLKVSEGTTILLNCTGQVKGRKPAALGEAQPTKSL[hSer]ENKSLKEQKKLNDLCFLKRLLQEIKTCWNKIL[Nle]GTKEH-NH2
# modifications: disulfide 34-129, 47-141, 2-92
# notes: The suffix is not explained; also called synthetic IL-7, WT with an N-terminal conjugation handle
# B2: CMP-110, synthetic IL-7 G85N of SEQ ID NO: 7 with glutaryl-PEG9-azide at the N-terminus (ligand)
# chain: {glutaryl‑PEG9‑azide}-DCDIEGKDGKQYESVL[Nle]VSIDQLLDS[Nle]KEIGSNCL[hSer]NEFNFFKRHICDANKEG[Nle]FLFRAARKLRQFLK[Nle]NSTGDF[hSer]LHLLKVSENTTILLNCTGQVKGRKPAALGEAQPTKSL[hSer]ENKSLKEQKKLNDLCFLKRLLQEIKTCWNKIL[Nle]GTKEH-NH2
# modifications: disulfide 34-129, 47-141, 2-92
# notes: The suffix is not explained; also called CMP-110-001
# B3: CMP-106, recombinant IL-7 V15W with His-tag (ligand)
# chain: DCDIEGKDGKQYESWLMVSIDQLLDSMKEIGSNCLNNEFNFFKRHICDANKEGMFLFRAARKLRQFLKMNSTGDFDLHLLKVSEGTTILLNCTGQVKGRKPAALGEAQPTKSLEENKSLKEQKKLNDLCFLKRLLQEIKTCWNKILMGTKEHVDHHHHHH
# notes: V15W is already in the entry, which also includes the C-terminal His-tag; also called IL-7 V15W (Recomb-HIS6)
# B4: LZM-009 (antibody, V domains shown)
# VH: QVQLVQSGAEVKKPGASVKVSCKASGYTFTSYYMYWVRQAPGQGLEWMGGVNPSNGGTNFNEKFKSRVTITADKSTSTAYMELSSLRSEDTAVYYCARRDYRYDMGFDYWGQGTTVTVSS
# VL: EIVLTQSPATLSLSPGERATISCRASKGVSTSGYSYLHWYQQKPGQAPRLLIYLASYLESGVPARFSGSGSGTDFTLTISSLEPEDFATYYCQHSRELPLTFGTGTKVEIK
# notes: It is a whole antibody with an Fc region (conjugated at K248)
# B5: CMP-041, LZM-009 conjugated to synthetic IL-7 (WT) CMP-108, DAR 1, at K248 (other)
# VH: B4 VH
# VL: B4 VL
# chain: DCDIEGKDGKQYESVLXVSIDQLLDSXKEIGSNCLXNEFNFFKRHICDANKEGXFLFRAARKLRQFLKXNSTGDFXLHLLKVSEGTTILLNCTGQVKGRKPAALGEAQPTKSLXENKSLKEQKKLNDLCFLKRLLQEIKTCWNKILXGTKEH
# modifications: not fully specified; norleucine (Nle) at 17, 27, 54, 69, 147; homoserine (Hse) at 36, 76, 114; N-terminal glutaryl-PEG9-azide reacted with the DBCO linker on the antibody; K248 (EU numbering) of the Fc region carries the linker to IL-7 (DAR 1)
# notes: Immunocytokine (chemical conjugate, not a fusion)
# B6: CMP-116, LZM-009 conjugated to synthetic IL-7 (V15W) CMP-107, DAR 1, at K248 (other)
# VH: B4 VH
# VL: B4 VL
# chain: B5 chain with V15W
# modifications: not fully specified; norleucine (Nle) at 17, 27, 54, 69, 147; homoserine (Hse) at 36, 76, 114; N-terminal glutaryl-PEG9-azide reacted with the DBCO linker on the antibody; K248 (EU numbering) of the Fc region carries the linker to IL-7 (DAR 1)
# notes: Immunocytokine (chemical conjugate)
# Experiments:
# [1] = biological target: T1, Recombinant Human IL-7R alpha/CD127 Fc …; assay: BLI (Octet R8); CD127-Fc-Avi loaded on SAX2 sensor, IL-7 polypeptide as analyte
# [2] = biological target: T1, Recombinant Human IL-7R alpha/CD127 Fc …; assay: as above; remark: listed apart in the source
# [3] = biological target: T2, IL-7 receptor (IL-7Rα/γc heterodimer) …; assay: cell-based or functional assay
# [4] = biological target: T1, Recombinant Human IL-7R alpha/CD127 Fc …; assay: BLI (Octet R8); CD127-Fc-Avi loaded on SAX2 sensor, IL-7 polypeptide as analyte; remark: listed apart in the source
# [5] = biological target: T1, Recombinant Human IL-7R alpha/CD127 Fc …; assay: as above; remark: listed apart in the source
# [6] = biological target: T1, Recombinant Human IL-7R alpha/CD127 Fc …; assay: as above; remark: listed apart in the source
# [7] = biological target: T3, Biotinylated Recombinant Human PD-1 (CD279)-Fc Chimera (carrier-free), Biolegend #789406 (human, UniProt Q15116 25-167, biotinylated); assay: ELISA: antibody coated on the plate, serial dilution of biotinylated human PD-1-Fc, streptavidin-HRP, OD 450 nm (x axis printed as 'Molecule (nM)')
# T3 construct: Bought PD-1-Fc; also called h-PD1 Fc; not shown: Fc part of a bought chimera
# [8] = biological target: T3, Biotinylated Recombinant Human PD-1 …; assay: Direct huPD1 ELISA: antibody coated on the plate, serial dilution of biotinylated human PD-1-Fc (x axis 'Biotin PD1 (nM)'), signal at 450 nm
# Experimental: (§1) Each of these variant conjugates and unmodified antibodies are assayed by ELISA for their ability to bind to human PD-1 according to the following protocol.
# (§2) Streptavidin-HRP is Sigma #RABHRP3. TMB solution is 3,3′,5,5′-Tetramethylbenzidine (Sigma T0440). Stop solution is Sigma #CL07STOP solution (0.5M H₂SO₄). Buffers are: Coating buffer is PBS. Wash buffer is PBS-0.02% Tween20. Blocking buffer is PBS-0.02% Tween20 1% BSA. Protein diluent is PBS-0.02% Tween20 0.1% BSA. STOP solution is 0.5M H₂SO₄. Procedure: Immunocytokines and parental antibody are coated overnight at 4° C. The ELISA plates are washed 4 times with 100 μl PBS-0.02% Tween20. and blocked with PBS-1% BSA. A serial dilution of h-PD1 Fc is prepared and plates are incubated for two hours at 37° C., with shaking (600 rpm). ELISA plates are washed and incubated with Streptavidin-HRP 30 min at RT, with shaking (600 rpm). ELISA plates are washed and incubated with ready-to-use TMB solution. Reaction is stopped and plates are read by OD450 on an Enspire plate reader.
# [9] = biological target: T1, Recombinant Human IL-7R alpha/CD127 Fc …; assay: BLI (Octet R8); CD127-Fc-Avi loaded on SAX2 sensor, immunocytokine as analyte
# [10] = biological target: T3, Biotinylated Recombinant Human PD-1 …; assay: Direct huPD1 ELISA: immunocytokine coated on the plate, serial dilution of biotinylated human PD-1-Fc (x axis 'Biotin PD1 (nM)'), signal at 450 nm
# Experimental: as §1, §2
# [11] = biological target: T3, Biotinylated Recombinant Human PD-1 …; assay: ELISA: immunocytokine coated on the plate, serial dilution of biotinylated human PD-1-Fc, streptavidin-HRP, OD 450 nm (x axis printed as 'Molecule (nM)')
# Experimental: as §1, §2
# [12] = biological target: T1, Recombinant Human IL-7R alpha/CD127 Fc …; assay: BLI (Octet R8); CD127-Fc-Avi loaded on SAX2 sensor, immunocytokine as analyte; remark: listed apart in the source
# T3 sequence (Q15116 25-167, change not shown): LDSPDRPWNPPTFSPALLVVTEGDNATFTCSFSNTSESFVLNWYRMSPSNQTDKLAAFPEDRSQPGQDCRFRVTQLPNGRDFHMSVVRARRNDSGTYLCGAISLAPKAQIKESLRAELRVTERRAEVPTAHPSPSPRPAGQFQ
binder,measurement,setting,value
B1,Kd,[1],254 pM
same,koff,[1],0.00167 s⁻¹
same,kon,[1],6.59e+06 M⁻¹ s⁻¹
same,Kd,[2],2750 pM
same,koff,[2],0.00901 s⁻¹
same,kon,[2],3.28e+06 M⁻¹ s⁻¹
same,"EC50 pSTAT5, CD4 Memory",[3],6 pM
same,"EC50 pSTAT5, CD4 Naive",[3],6 pM
same,"EC50 pSTAT5, CD4 Treg",[3],20 pM
same,"EC50 pSTAT5, CD8 Memory",[3],8 pM
same,"EC50 pSTAT5, CD8 Naive",[3],8 pM
B2,Kd,[4],9470 pM
same,koff,[4],0.0269 s⁻¹
same,kon,[4],2.84e+06 M⁻¹ s⁻¹
same,koff,[5],0.0225 s⁻¹
same,kon,[5],2.51e+06 M⁻¹ s⁻¹
same,"EC50 pSTAT5, CD4 Memory",[3],30 pM
same,"EC50 pSTAT5, CD4 Naive",[3],30 pM
same,"EC50 pSTAT5, CD4 Treg",[3],67 nM
same,"EC50 pSTAT5, CD8 Memory",[3],80 pM
same,"EC50 pSTAT5, CD8 Naive",[3],50 pM
B3,Kd,[6],66300 pM
same,koff,[6],0.0321 s⁻¹
same,kon,[6],485000 M⁻¹ s⁻¹
same,"EC50 pSTAT5, CD4 Memory",[3],0.93 nM
same,"EC50 pSTAT5, CD4 Naive",[3],0.814 nM
same,"EC50 pSTAT5, CD4 Treg",[3],27.7 nM
same,"EC50 pSTAT5, CD8 Memory",[3],3.22 nM
same,"EC50 pSTAT5, CD8 Naive",[3],1.28 nM
B4,EC50,[7],35 pM
same,EC50,[8],35 pM
B5,koff,[9],0.00979 s⁻¹
same,kon,[9],2.95e+06 M⁻¹ s⁻¹
same,EC50,[10],34.8 pM
same,EC50,[11],34.8 pM
B6,koff,[12],0.0473 s⁻¹
same,kon,[12],2.9e+06 M⁻¹ s⁻¹
same,EC50,[10],34.1 pM
